Assay results as given in patent publication US20160244499A1 (Stanford University, published 2016).

Molecular target: T1, γc on human cell lines (Ramos, HH, U937) (human, UniProt P31785 23-369)
T1 sequence (looked up): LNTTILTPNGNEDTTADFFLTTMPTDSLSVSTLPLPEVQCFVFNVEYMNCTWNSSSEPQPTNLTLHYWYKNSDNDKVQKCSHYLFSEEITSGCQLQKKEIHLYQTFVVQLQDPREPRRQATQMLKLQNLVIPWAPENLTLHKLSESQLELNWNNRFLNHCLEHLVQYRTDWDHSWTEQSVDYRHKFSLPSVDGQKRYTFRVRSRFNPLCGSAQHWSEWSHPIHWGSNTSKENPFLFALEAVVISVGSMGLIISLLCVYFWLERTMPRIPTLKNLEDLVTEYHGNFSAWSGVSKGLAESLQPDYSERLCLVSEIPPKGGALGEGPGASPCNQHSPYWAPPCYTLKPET
Assay: cell-based or functional assay

B1: super-4 (IL-4 RGA), free, not bound to IL-4Rα (ligand)
chain: HKCDITLQEIIKTLNSLTEQKTLCTELTVTDIFAASKNTTEKETFCRAATVLRQFYSHHEKDTRCLGATAQQFHRHKQLIRFLKRLDRNLWGLAGLNSCPVKEANQSTLENFLERLRVIMQSKWFKCGAHHHHHH
In the case of B1, the “STAT6 phosphorylation in Ramos cells, potency against IL-4” value is reported as roughly 3 fold and the “STAT6 phosphorylation in Ramos cells, potency against KFR” value is reported as roughly 10 fold.
